Data published in patent publication US20230295338A1 (published 2023).

Assays:
recHopQ = recHopQ (Helicobacter pylori); test: BLI
[1] = molecular target: T1, human CEACAM1-Fc fusion protein (UniProt P13688 35-428); test: BLI
T1 chain: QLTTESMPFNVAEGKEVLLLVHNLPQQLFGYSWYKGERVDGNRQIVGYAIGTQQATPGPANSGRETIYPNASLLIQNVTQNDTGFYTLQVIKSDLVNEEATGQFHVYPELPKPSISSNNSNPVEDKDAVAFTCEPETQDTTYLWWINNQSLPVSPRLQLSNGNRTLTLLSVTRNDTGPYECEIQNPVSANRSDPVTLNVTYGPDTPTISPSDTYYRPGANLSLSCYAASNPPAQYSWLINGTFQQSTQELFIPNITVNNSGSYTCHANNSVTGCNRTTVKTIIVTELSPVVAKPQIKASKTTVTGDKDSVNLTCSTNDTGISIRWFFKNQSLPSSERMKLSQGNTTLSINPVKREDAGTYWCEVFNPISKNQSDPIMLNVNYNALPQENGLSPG

[2] = molecular target: T1, human CEACAM1-Fc fusion protein; test: ELISA
CC1-N-Fc = test: ELISA

B1: CEACAM1-Fc (Fc fusion)
chain: T1 chain
recHopQ
  Kd: 183 nM

B2: CC1/3/5-Sab (antibody, V domains shown)
VH: EVQLQQSGPELVKPGTSVKMSCKASGYTFTTYVMHWVQQKPGQGLDWIGFFNPYNDGTKYNEKFKGKATLTSDKSSSTAYMELSSLTSEDSAVYYCARWAYDGSYAYWGQGTTLTVSS
VL: DIQMTQSSSYLSVFLGGRVTITCKASDHINNWLAWYQQKPGNAPRLLISGATSLETGVPSRFSGSGSGKDYTLSIISLQTEDVATYYCQQYWRTPFTFGSGTKLEIK
[1]
  Kd: 54 nM
[2]
  IC50: 0.146 nM

B3: mAb CC1/3/5-Sab (antibody, V domains shown)
VH: B2 VH
VL: B2 VL
CC1-N-Fc
  IC50: 0.107 nM
